The series concerns the target PDGF-BB (UniProt P01127 P01127:82-190). Kind of series: SPR; aptamer on DNA honeycomb on gold; phosphate buffer 137 mM NaCl, 2.7 mM KCl, 1 mM MgCl2, pH 7.4. As to conditions: chain copies: 2 (homodimer, inferred). The method, then: The sensing surface was then exposed to the Platelet-derived growth factor aptamer which had been modified, as in Table III (SEQ ID NO:16), to include a 25 bp poly A tail at a concentration of 50 nM in 10 mM Tris pH 7.4 1 M NaCl 1 mM EDTA and incubated for an hour.
The sensing surface was washed with 10.1 mM Na₂HPO₄, 1.8 mM KH₂PO₄, 137 mM NaCl and 2.7 mM KCl, 1 mM MgCl2, pH 7.4. Detection of PDGF was performed in the same buffer where the surface was exposed to increasing concentrations of the ligands and response was recorded.
On the technique in general: SPR reads the build-up and loss of mass on a sensor chip optically.

Chain of PDGF-BB (P01127 82-190, one chain of several): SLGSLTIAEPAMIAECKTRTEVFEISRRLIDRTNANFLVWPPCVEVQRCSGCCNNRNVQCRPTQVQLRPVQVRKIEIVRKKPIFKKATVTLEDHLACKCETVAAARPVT

B1: PDGF-BB aptamer with 25-nt poly A tail (SEQ ID NO: 16), on honeycomb DNA scaffold (ssDNA)
DNA: CACAGGCTACGGCACGTAGAGCATCACCATGATCCTGTGAAAAAAAAAAAAAAAAAAAAAAAAA
One may read the Kd as the concentration at which binding is half-saturated. Read a high Kd as weaker binding. Take B1: the equilibrium dissociation constant (Kd) amounted to 0.028 µM.

The values above are taken from patent publication US20210395743, “SELF-ASSEMBLING NUCLEIC ACID SURFACES FOR BIOSENSOR APPLICATIONS” (INSTITUT NATIONAL DE LA RECHERCHE SCIENTIFIQUE, published 2021).
